Data: patent US20150160214A1, “Quantitation of Cellular Adhesion Dynamics Across Immobilized Receptors Under Rheological Shear Flow” (Mayo Foundation for Medical Education and Research, priority 2013, published 2015)

Key:
platelet GP1bα [1] = experiment: Platelet pause times and translocation velocities on immobilized A1 under shear flow, parallel-plate flow chamber (Example 1); type: cell-based, human; details: 5 μM protein immobilized; as a function of shear rate
Description: (§1) To understand the effect of the N-terminal peptide on the function of the A1-domain of vWF, the protein was expressed with (A1-1238) and without the N-terminal peptide (A1-1261). The inventor used a flow chamber to measure the dynamics of platelet interactions with A1-1238 and A1-1261. Each domain variant was immobilized on glass slides with a modified Cu^2+ chelating chemistry that enabled surface capture via the N-terminally fused histidine tag. This method ensured reproducible capture of the proteins eliminating possible structural issues associated with nonspecific immobilization on plastic or glass. The slides were completely inert to platelets. Next, 1 mL of citrated whole blood followed by Tris buffered saline was perfused at low shear to enable platelets to attach to the surface immobilized domains. After red cells were perfused away with buffer, the translocation of the remaining attached platelets over the surfaces was recorded at each shear rate and the velocities and pause times calculated from the coordinate data of each platelet on the surface as described in the methods. […] In addition, the translocation velocities were increased for A1-1238 relative to A1-1261. To determine if this N-terminal sequence could inhibit the catch bond when free in solution, the inventor incubated surface immobilized A1-1261 with excess free peptide and added the free peptide to 1 mL of whole blood and to our perfusion buffer and performed the assay.
(§2) Determination of platelet pause times. Determination of platelet pause times A Glycotech† rectangular parallel-plate flow chamber was mounted to slides with a chelated Cu 21 surface obtained from Microsurfaces Inc. # to which the A1-1261 and A1-1238 domains in TBS were immobilized by the 63His-Tag. Citrated whole blood (1 mL) obtained from informed consent of healthy donors with approval from the Baylor College of Medicine institutional review board followed by buffer was perfused through the chamber at 300s21 for A1-1261 and 700s21 for A1-1238 shear rate to attach platelets to the surface immobilized proteins using a syringe driven variable flow rate pump. The shear was increased incrementally and 1 min movies were recorded at 25 frames/s in phase contrast with 232 pixel binning on a Zeiss Axiocam MRm camera attached to a Zeiss Axio Observer D1 inverted microscope. Tracking analysis was performed using Mediacybernetics ImagePro Premier§. The resulting X-Y coordinate data for each platelet track was differentiated into instantaneous velocities using a Savitzky-Golay algorithm (Savitzky:1964) with a five data point window size and a second-order polynomial implemented into a Mathamatica notebook. These platelet tracks were retained for statistical analysis if the platelet was present for at least 1 s and travelled a total distance greater than 1 lm. Distance travelled in pixels was converted to lm given the camera pixel size=6.45 μm^2, pixel binning, and microscope magnification=400×. Pause times were determined by the amount of time (seconds) a platelets velocity was =0±0.13 μm/s, within the noise. Pause times for all platelet tracks are reported as the mean of the medians. Examples of this analysis for individual platelets and for multiple platelets are provided in the Supporting Information.
(§3) Frame by frame platelet trajectory analysis. Tracking coordinates of individual platelets in units of pixels were exported from ImagePro Premier as a text file and imported into a Mathematica notebook that calculates a Savitzky-Golay first derivative of the total distance traveled over time (Savitzky:1964). The distance was calculated from the X and Y coordinates with the following equation.
(§4) Pause times were determined from the length of time the platelet velocity remained within 0±4 pixel/sec=0.129 μm/sec as illustrated in FIG. 8B. Median pause times were calculated from velocity time profiles for all platelet tracks, stored in a list and translated to histograms for multiple platelets. […]

A1-1261 = target: T1, A1-1261 (Homo sapiens, UniProt P04275); experiment: Binding of free N-terminal peptide to A1-1261 from thermal unfolding enthalpy (tryptophan fluorescence); details: for Apparent TM of primary transition / Enthalpy of the unfolding transition ΔHT*‡: 2° Celsius/min
T1 construct: A1-1261 (amino acids D1261-P1471); made in house
Description: (§5) This would imply a specific interaction between this N-terminal sequence and the A1 domain when covalently linked in sequence. The only way to examine such a stabilization using spectroscopy was the measurement of thermal unfolding via fluorescence. Since the N-terminal peptide also contains a single tyrosine residue, the excitation wavelength was changed to λ=295 nm in order to measure tryptophan fluorescence and the effect of the peptide on the unfolding of the A1-domain was observed indirectly. Thermal scans of 2 μM A1-1261 were performed as a function of increasing amounts of the N-terminal peptide at 2° Celsius/min. […] Thermal scans were also done in the presence of a peptide with the same amino acid composition, but a scrambled sequence. The inset of FIG. 7A compares the raw fluorescence thermal scans in the presence of 300 μM scrambled and N-terminal peptides. Unfolding in the presence of excess scrambled peptide was equivalent to unfolding in the absence of either peptide. […] Fitting the enthalpy data to a simple single site binding model yields a dissociation constant of ≈46±6 μM.
(§6) Prior to all spectroscopic thermal scans, protein samples were equilibrated at 10° Celsius for 15 min to obtain a stable baseline. CD thermal scans between 10 and 95° Celsius were recorded at λ=222 nm using a protein concentration of 1 or 2 μM in a 1 cm quartz cell under moderate stirring. Scan rates were 0.5, 1.0, 1.5 and 2.0° Celsius/min. Integration time for each data point was 20 s with a 1 nm bandwidth. Fluorescence thermal scans between 10 and 95 Celsius were recorded at an emission λ=359 nm after excitation λ=280 nm or λ=295 nm using 2 μM protein in a 1 cm quartz cell with moderate stirring. Scan rates were 0.4 or 0.6, 0.9, 1.6 and 2.0° Celsius/min. At each temperature, relative fluorescence intensity was collected for 4 s and averaged. Thermal scans in the presence of N-terminal peptide at 2.0° Celsius/min were preceded by 1 h incubations at 20° Celsius with 0.02-300 μM peptide.
For the thermal unfolding studies in the presence of peptide, the inventor treated the change in enthalpy of unfolding, ΔHT*^‡ as an observable directly proportional to the degree of binding, X, because the T* was not dependent on peptide concentration.
For the simple single site binding model, A1+P<->A1P, where P is the peptide, the degree of binding is given by
where K is the binding affinity and the free peptide, [P], concentration is given in terms of the total protein, A1T, and peptide, PT, concentrations.

[2] = Temperature-induced unfolding by fluorescence and CD, irreversible models (Example 1); type: physicochemical
Protocol: A1-1261 and A1-1238 were thermally unfolded using intrinsic protein tyrosine and tryptophan fluorescence with an excitation λ=280 nm and emission λ=359 nm and CD monitored at λ=222 nm. […] As the scan rate increases, the midpoint of the transition (apparent TM) also increases.
Thermal transitions were analyzed in terms of the observed midpoint of the transition, apparent TM, and also by a two-state irreversible model or a three-state irreversible model as described in the Supplement and the calculated parameters are summarized in FIGS. 5A to 5D. […] If the protein unfolding was at equilibrium and reversible, this apparent TM would remain constant at all scan rates. Extrapolation of the TM to a scan rate of 0° Celsius/min provides an indication of where reversible unfolding would occur under equilibrium conditions; 50° Celsius for A1-1238 and 48° Celsius for A1-1261 from both CD and fluorescence data. For the second transition observed by fluorescence that occurs with A1-1238, the TM extrapolates to about 73° Celsius in the limit of zero scan rate. Analysis by the two-state and three-state irreversible models yields an R^2>0.99 for both fluorescence and CD and a transition temperature, T*, that is independent of the temperature scan rate. In addition, the enthalpies of the transitions are independent of scan rate within experimental error FIG. 5B. FIGS. 5C and 5D show the resulting average T* and ΔHT*^‡±the standard deviation obtained from the fitting of the primary thermal transitions in FIG. 4A to 4D for CD and fluorescence and a total average for both methods. […] However, the unfolding enthalpy was statistically larger for A1-1238 (250±15 kJ/mol) than for A1-1261 (204±10 kJ/mol). The average T* and ΔHT*^‡ observed in the second fluorescence transition of A1-1238 is 89.1±2.2° Celsius and 360±14 kJ/mol.
as §6
For an irreversible two-state transition, unfolding is kinetically controlled by a first order rate constant that varies with temperature according to the Arrhenius equation (Atkins:1994). In our analysis the inventor refers to the intermediate state as the final irreversible state for all thermal transitions involving the unfolding of A1-1261 in the absence of peptide when monitored by fluoresence, CD and DSC and for A1-1238 when monitored by CD and DSC. The following equations derived below are equally valid for any two state irreversible transitions The activation energy in going from N->I is ΔG^‡=−RT ln k^‡ and the inventor expands ln k^‡ as a function of temperature in terms of Δβ=(β−β*)=(1/RT−1/RT*) using a Taylor series, where T̂* is the temperature at which ΔG^‡=0.

[3] = target: T2, platelet GP1bα (Homo sapiens); experiment: Platelet pause times and translocation velocities on immobilized A1 under shear flow, parallel-plate flow chamber (Example 1); type: cell-based; details: 300 μM peptide incubated with immobilized A1-1261; 66 μM in whole blood and buffer
T2 construct: perfused at low shear to enable platelets to attach to the surface immobilized domains; endogenous in cells; host or cells: platelets in citrated whole blood of healthy donors
Description: as §1, §2, §3, §4

platelet GP1bα [4] = target: T3, platelet GP1bα (Homo sapiens, UniProt P04275); experiment: as above; type: cell-based; details: free peptide added
T3 construct: perfused at low shear to enable platelets to attach to the surface immobilized domains; endogenous in cells; host or cells: platelets in citrated whole blood of healthy donors
Description: as §1, §2, §3, §4

[5] = target: T4, Recombinant human vWF A1-1261 (amino acids D1261-P1471), N-terminal truncated variant (human, UniProt P04275 1261-1471); experiment: thermal unfolding of 2 µM A1-1261, tryptophan fluorescence at 359 nm (excitation 295 nm)
T4 construct: Lacks the linker residues Q1238-E1260; also called truncated A1
Description: as §5, with “indirectly.” for “indirectly. Thermal scans of 2 μM A1-1261 were performed as a function of increasing amounts of the N-terminal peptide at 2° Celsius/min.”

[6] = A1-1261 in presence of free N-terminal peptide

Molecule: A1-1261: N-terminal truncated recombinant human vWF A1 domain, amino acids D1261-P1471, with N-terminal 6×His-Tag
- Platelet pause times on immobilized domain (comparison) (platelet GP1bα [1]): longer pause times than A1-1238
- Apparent TM of primary transition (A1-1261; 2 μM A1-1261, absence of peptide, excitation 295 nm): 53 ° Celsius
- Enthalpy of the unfolding transition ΔHT*‡ (A1-1261; 2 μM A1-1261, low end of N-terminal peptide titration): ≈ 197 kJ/mol
- Enthalpy of the unfolding transition ΔHT*‡ (A1-1261; 2 μM A1-1261, saturating N-terminal peptide): ≈ 242 kJ/mol
- Apparent TM of primary transition (A1-1261; 2 μM A1-1261, saturating concentrations of N-terminal peptide): 55.5 ° Celsius
- Average T*, peptide-induced second fluorescence transition [2, 6]: 90.1±8.5 ° Celsius
- Average ΔHT*‡, peptide-induced second fluorescence transition [2, 6]: 33.9 ± 8.87 kcal/mol
- Apparent TM extrapolated to a scan rate of 0° Celsius/min, primary transition ([2]; CD and fluorescence data): 48 ° Celsius
- Transition temperature T*, primary unfolding transition ([2]; average of CD and fluorescence): 64.5±0.9 ° Celsius
- Unfolding enthalpy ΔHT*‡, primary unfolding transition ([2]; average of CD and fluorescence): 48.8 ± 2.39 kcal/mol

Molecule: QLPTGVLGEPSDAVPTVYEVTPPG (SEQ ID NO.:2) [scrambled peptide, reference compound]
- Effect of free peptide on platelet pause times on immobilized A1-1261 [3]: did not significantly change the pause times or translocation velocities
- Effect of free peptide on platelet pause times or translocation velocities on immobilized A1-1238 (platelet GP1bα [4]): did not significantly change the pause times or translocation velocities
- Effect of peptide on unfolding enthalpy of A1-1261 (A1-1261; saturating peptide concentrations): did not change the unfolding enthalpy

B1: scrambled peptide (QLPTGVLGEPSDAVPTVYEVTPPG) (peptide)
peptide: H-QLPTGVLGEPSDAVPTVYEVTPPG-OH
notes: Synthetic control peptide, said to have the same amino acid composition as the N-terminal peptide in scrambled order
- binding result [5]: no binding (tested: 300 µM)
